Measurements reported in publication PMC7567884.

What follows are sequences tested against T1, His-LexA (Synechocystis sp. PCC 6803) (UniProt P73722) (assay: EMSA). Conditions: DIG Gel Shift Kit 2nd generation (Roche), as in Kizawa et al. (ref 9); 6% polyacrylamide gel; buffer, salt, pH and temperature not given.
T1 sequence: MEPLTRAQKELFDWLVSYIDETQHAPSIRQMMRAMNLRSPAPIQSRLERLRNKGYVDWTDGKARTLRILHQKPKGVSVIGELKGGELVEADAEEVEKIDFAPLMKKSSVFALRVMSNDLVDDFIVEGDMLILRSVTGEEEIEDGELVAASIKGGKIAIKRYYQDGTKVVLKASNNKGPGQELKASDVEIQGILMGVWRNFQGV

binding, binds:
GTGGGAAAGTTCCACCTATACCATGCCTTGAAAATTGGTATGGGTCAAATCAGATAGTTCTTTTTGACTACTAATTTTGTTGCTAGCAGCGTTGTCAATCCCATCGCTCTGGTCTGGGATGCAAATGGCAGGAAAATTCTGCTCCCCTTGGGGGAAACGAGTTACGATGGGGGCGACGTTTGCTTTGTTTGCGACATAAT (double strand) [PggtB]
TAACTCGTCACACCCCATGTGGGCAATGGTATCGTATTCTGCCCAGGTTTCCACCCCTTCAGCCGTTACTCGCAACTCTAGTTCGTGGGCTAGGTTGATAATTGAGGCGGTGATAGTTTTATTCTTGGCGTTTTTGTCAATGTGACGCACAAAGCTTTGATCTATTTTCAGCACATCAAAGGGGAACTGCTGCAGATAAC (double strand) [PggpP]
TGCAATTTCCTCCTGTCCTCAGGGGACAAACTATATTAAGAAAGTTTACGGGATTATGTTGCCCGGGGAGAATTTGTCCGTGGGGGGTTTACCGACCGATCGCCGGTGAGAAGTACCAGGATAGCTTTATAAAGTTTTGTTACAATGGCAGAAGAAATTCTCAGAAACCCAGCC (double strand) [PnblB]
TGGGATCAAACAACAAGAAAAAATCAATTTACCCTGCCCATGGCAATAGTTTTAAGGTTAACAAAAAAAATAGAATTTACCGCAATCGACGGGTAAATTTCCAGAGGATACCCCCAACTCCAGAAGCAGAAATCTTGCCAGAAAAGCTTTTTCTGTTACTATACTTAACAAGTAACTACTTTTTCC (double strand) [PggpS]
TGGGCAGGGTAAATTGATTTTTTCTTGTTGTTTGATCCCATTTTCCAGTCTTTTTGACTTCCATTCAGTCAGGATAATTTTTGCAGTTTTTTTATGGAGTTTTGATAACATTGAGCTTTGCCCCCGGCGATCGCCTAGGGATAAACAATAAACGTGTGAACTAATATGCCTGGATTTATCCCTGGATTGACATTGTTTTTGCC (double strand) [PgghA]
TTTTTCACAACCTAAGACTTCCTTCCAAAAATCCATAGGGCGGTGGAAGCTTAGCTATTTTTACCATTTTGTTTTGCCACTCAAATATTTACTTAAGGTGAGGTAAAAACTCATCTTTTTTTTACTAAAAATTGCGGCTAGAAATGTAATTTCGGCAATCCCCCCACCTTCTTTCCTGAAAACCGAATCTAACCTGGAAGGGGAAATTTTAAGATAGAACCATTCAAGGGTAATCAATTCCTTCCACACATCAGGAGTTAACATT (double strand) [PhspA]
